Assay results published in patent US20230103618A1 (FRED HUTCHINSON CANCER CENTER, published 2023).
No end group written: not given here.

Biological target: T1, TrkB.T1 peptide FVLFHKIPLDG (not fully specified)
T1 construct: also called target peptide
T1 peptide: FVLFHKIPLDG
Test: bead-based flow cytometry, peptide on beads
Excerpt: Murine monoclonal antibody (clone FH1D12) was generated at the Fred Hutchinson Antibody Technology Core Facility. Briefly, male and female 20-week-old C57BL6 mice that were characterized as genetic null for TrkB.T1 (Dorsey, S. G. et al.) In vivo restoration of physiological levels of truncated TrkB.T1 receptor rescues neuronal cell death in a trisomic mouse model. Neuron 51, 21-28 (2006)) were immunized with TrkB.T1 peptide Ac—C(dPEG4)[…]-OH (SEQ ID NO:1) maleimide coupled to KLH carrier protein. Following a 12+ week boosting protocol splenocytes were isolated from high titer mice and electrofused to a subclone of the P3x63-Ag8 myeloma cell line (BTX, Harvard Apparatus). Hybridomas secreting peptide specific antibody were identified and isolated using a ClonePix2 (Molecular Devices, CPII) colony picker. Antibodies from the picked clones were validated for peptide binding by flow cytometry using a cytometric bead array carrying the target peptide. Clone FH1D12 was subcloned (CPII) followed by validation for peptide binding by bead-based flow cytometry. Affinity purified IgG2b lambda from the hybridoma was further characterized by Western blot analysis and IHC tissue staining. Antibody development was performed in Holland Lab and with the Antibody Technology Resource (Fred Hutchinson Cancer Research Center).

B1: Murine monoclonal antibody (clone FH1D12) to TrkB.T1 (antibody, V domains shown)
VH: VQLQQSGPELARPWASVKISCQAFYTFSRGIHFDIRNTMYWIQWVKQRPGQGLEWIGAIYPGNGDPTYSQNFKDKATLTADKSSNTAYMQLSSLTSEDSAVYYCARYDYGGGFTYWGQGTLVTVSA
VL: QTVVTQESALTTSPGETVTLTCRSSTGAVTTSNYANWVQEKPDHLFTGLIGGINNRAPGVPARFSGSLIGDKAVLTITGAQTEDEAIYFCALWYSNHWVFGGGTKLTVL
notes: also called SPEH1_D12; antibody clone D12
- binding result: binds
